Data reported in patent US20260347495 (published 2026).

Legend:
[1] = molecular target: transferrin (human, UniProt P02787); experiment: ELISA
[2] = molecular target: lactotransferrin (human, UniProt P02788); experiment: ELISA
lactotransferrin, sequence (P02788 20-710): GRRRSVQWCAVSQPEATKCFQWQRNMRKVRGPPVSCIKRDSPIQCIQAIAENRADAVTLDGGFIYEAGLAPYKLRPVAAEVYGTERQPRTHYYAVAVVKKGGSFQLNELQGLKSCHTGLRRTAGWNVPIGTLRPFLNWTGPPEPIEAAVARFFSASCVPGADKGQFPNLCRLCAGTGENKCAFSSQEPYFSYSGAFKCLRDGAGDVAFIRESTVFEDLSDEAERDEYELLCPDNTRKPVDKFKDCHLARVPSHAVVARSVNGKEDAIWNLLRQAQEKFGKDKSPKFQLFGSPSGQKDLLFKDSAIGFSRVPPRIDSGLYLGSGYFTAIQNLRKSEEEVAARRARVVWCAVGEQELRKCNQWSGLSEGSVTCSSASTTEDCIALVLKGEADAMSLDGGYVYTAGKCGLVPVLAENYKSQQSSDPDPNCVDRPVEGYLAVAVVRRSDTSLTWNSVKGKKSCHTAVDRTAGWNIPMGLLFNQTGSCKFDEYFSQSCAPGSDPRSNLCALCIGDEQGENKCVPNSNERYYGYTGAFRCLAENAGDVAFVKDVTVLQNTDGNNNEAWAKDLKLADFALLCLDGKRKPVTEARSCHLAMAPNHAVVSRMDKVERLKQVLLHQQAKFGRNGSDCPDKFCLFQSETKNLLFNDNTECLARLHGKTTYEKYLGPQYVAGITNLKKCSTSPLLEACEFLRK

transferrin, sequence (P02787 20-698): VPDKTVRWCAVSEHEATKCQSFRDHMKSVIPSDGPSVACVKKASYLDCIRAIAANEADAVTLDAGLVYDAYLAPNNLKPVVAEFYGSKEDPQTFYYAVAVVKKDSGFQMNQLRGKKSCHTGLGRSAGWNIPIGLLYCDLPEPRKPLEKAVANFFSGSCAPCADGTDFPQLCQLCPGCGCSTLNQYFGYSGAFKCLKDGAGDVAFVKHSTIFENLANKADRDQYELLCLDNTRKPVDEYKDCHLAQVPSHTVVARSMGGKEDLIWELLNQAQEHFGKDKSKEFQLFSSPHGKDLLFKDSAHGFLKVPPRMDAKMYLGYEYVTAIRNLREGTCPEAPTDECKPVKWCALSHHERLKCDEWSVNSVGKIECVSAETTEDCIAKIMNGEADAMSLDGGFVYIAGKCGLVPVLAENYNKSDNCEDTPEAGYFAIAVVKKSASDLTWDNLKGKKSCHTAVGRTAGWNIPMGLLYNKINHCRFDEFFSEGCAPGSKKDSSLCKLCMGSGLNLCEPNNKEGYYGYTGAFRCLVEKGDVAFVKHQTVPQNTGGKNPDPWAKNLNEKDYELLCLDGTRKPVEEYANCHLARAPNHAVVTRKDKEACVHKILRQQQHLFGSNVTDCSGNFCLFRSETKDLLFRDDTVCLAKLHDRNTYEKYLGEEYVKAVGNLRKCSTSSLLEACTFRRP

Binder	binding result [1]	binding result [2]
OMT35 (clone 35) (antibody, V domains shown) VH: QVQLQQSGPGLVKPSQTLSLTCAISGDSVSSNSAAWNWIRQSPSSGLEWLGRTYYRSKWFDDYAVSVKGRITINPDTSKNQFSLQLKFVIPEDTAVYYCARRVHWGGPFDYWGQGTLVTVSS VL: DIQLTQSPSFLSASVGDRVTITCRASQGISSYLAWYQQRPGKAPKVLISVASTLQSGVPSRFSGSGSGTDFTLTISSLQPEDFATYYCQQLTGYPFTFGPGTKVDIK	no binding	no binding
OMT24 (clone 24) (antibody, V domains shown) VH: QVQLVQSGSELKKPGASVKVSCKASGYTFTTYVMNWVRQAPGQGLEWMGWINTNTGNPTYAQGFTGRFVFSVDTSVSTAYLQISSLKAEDTAVYYCARDRVLLWFGAGYYHYGMDVWGQGTTVTVSS VL: SSELTQDPAVSVALGQTVRITCQGDSLRSYYTSWYQQKPGQAPVFVIYGKNNRPSGIPDRFSGSSSGNTASLTITGAQAEDEADYYCNSRDSSGNHVVFGGGTKLTVL	no binding	no binding
OMT8 (clone 8) (antibody, V domains shown) VH: QVQLQESGPGLVKPSQTLSLTCTVSGGSISSGGYYWSWIRQHPGKGLEWIGYIHYIGSTYQNPSLKSRVTMSVDTSKNQFSLRLTSVTAADTAVYYCARESGDTAMVFDYWGQGTQVTVSS VL: QSALTQPPSASGSPGQSVTISCTGTSSDVGGYNYVSWYQQHPGKAPKVMIYEVSTRPSGVPDRFSGSKSGNTASLTVSGLQAEDEADYYCSSYAGNNNFVFGTGTKVTVL	no binding	no binding
OMT36 (clone 36) (antibody, V domains shown) VH: QVQLVQSGAEVKKPGASVKVSCKASGYTFTNYDINWVRQATGQGLEWMGWMNPNSGNTDYVQKFQGRVAMTRITSISTAYLELSSLRSDDTAVYYCARGLHSGDYYSYGMDVWGQGTTVTVSS VL: SYELTQPPSVSVSPGQTARITCSGDALPNQYAYWYQQKPGQAPVLVIYKDSERPSGIPERFSGSSSGTTVTLTISGVQAEDEADYYCQSADSSGTVVFGGGTKLSVL	no binding	no binding
OMT30 (clone 30) (antibody, V domains shown) VH: QVQLVESGGGVVQPGRSLRLSCAASGFTFSSYGIHWVRQAPGKGLEWVAVIWYDGSNKYYADSVKGRFTISRDNSKNTLYLQMNSLRAEDTAVYYCARRGDSSSWHFDYWGQGTLVTVSS VL: QSALTQPASVSGSPGQSITISCTGTSSDVGRHNLVSWYQQHPGKVPKVMIYEVTKRPAGVSNRFSGSKSGNTASLTISGLQAEDEADYYCCSYAGSSTYVFGTGTRVTVL	no binding	no binding
